Test results reported in patent US20230295332A1 (INTERIUS BIOTHERAPEUTICS, published 2023).

Columns and labels:
Assay in all cases: cell-based or functional assay
non-human primate CD7 = molecular target: T1, non-human primate CD7 (non-human primate)
T1 chain: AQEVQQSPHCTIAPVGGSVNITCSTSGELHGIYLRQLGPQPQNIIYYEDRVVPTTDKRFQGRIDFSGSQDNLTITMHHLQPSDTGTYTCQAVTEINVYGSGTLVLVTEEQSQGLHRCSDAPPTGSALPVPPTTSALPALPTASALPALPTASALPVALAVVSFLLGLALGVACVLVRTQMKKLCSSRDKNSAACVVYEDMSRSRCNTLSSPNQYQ

human CD7 = molecular target: T2, human CD7 (human, UniProt P09564 26-240)
T2 sequence: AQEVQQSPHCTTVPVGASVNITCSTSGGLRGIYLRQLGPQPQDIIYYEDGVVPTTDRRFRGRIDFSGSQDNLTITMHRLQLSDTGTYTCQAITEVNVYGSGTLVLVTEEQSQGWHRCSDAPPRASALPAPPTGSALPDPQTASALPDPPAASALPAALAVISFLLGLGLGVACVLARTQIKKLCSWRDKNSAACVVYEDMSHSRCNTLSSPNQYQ

human CD8 = human CD8 (human, UniProt P01732 22-235; P10966 22-210)
non-human primate CD8 = non-human primate CD8 (non-human primate)

human CD8, sequence (P01732 22-235 Y112C limits assumed, chain 1 of 2): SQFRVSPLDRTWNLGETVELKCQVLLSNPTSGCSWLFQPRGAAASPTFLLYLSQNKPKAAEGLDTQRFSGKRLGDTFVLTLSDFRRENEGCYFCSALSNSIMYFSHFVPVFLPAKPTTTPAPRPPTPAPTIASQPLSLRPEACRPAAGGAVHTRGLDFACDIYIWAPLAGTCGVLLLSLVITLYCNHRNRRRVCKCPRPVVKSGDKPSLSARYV
human CD8, sequence (P10966 other isoform, or with tags, fused parts or gaps limits assumed, chain 2 of 2): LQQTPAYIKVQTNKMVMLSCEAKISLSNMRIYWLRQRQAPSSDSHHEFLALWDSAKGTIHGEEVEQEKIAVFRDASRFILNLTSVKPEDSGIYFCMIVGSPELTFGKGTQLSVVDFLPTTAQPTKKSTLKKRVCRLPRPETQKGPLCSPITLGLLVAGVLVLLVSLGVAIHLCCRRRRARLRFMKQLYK

B1: CD7 Binder (SEQ ID NO. 52) (scFv)
scFv: QVQLQQPGAELVKPGASVKLSCKASGYPFTSYWIHWVKQRPGRGLEWLGRIDPNSGDTKYNEKFKNKATLTVDKSSTTAYMQLSSLTSEDSAVYYCARSPYYSNDNSMDYWGQGTSVTVSSGGGGSGGGGSGGGGSGGGGSDILLTQSPAILSVSPGERVSFSCRASQSIGTSIHWYQQRTNDSPRLLIKYASESISGIPSRFSGSGSGTDFTLSINSVESEDIADYYCQQSNSWPTTFGGGTKLEIKR
NHP PBMC Transduction (% positive) (non-human primate CD7): 5.64 % positive | Human PBMC Transduction (% positive) (human CD7): 21.6 % positive

B2: CD7 Binder (SEQ ID NO. 51) (scFv)
scFv: DILLTQSPAILSVSPGERVSFSCRASQSIGTSIHWYQQRTNDSPRLLIKYASESISGIPSRFSGSGSGTDFTLSINSVESEDIADYYCQQSNSWPTTFGGGTKLEIKRGGGGSGGGGSGGGGSGGGGSQVQLQQPGAELVKPGASVKLSCKASGYPFTSYWIHWVKQRPGRGLEWLGRIDPNSGDTKYNEKFKNKATLTVDKSSTTAYMQLSSLTSEDSAVYYCARSPYYSNDNSMDYWGQGTSVTVSS
NHP PBMC Transduction (% positive) (non-human primate CD7): 2.61 % positive | Human PBMC Transduction (% positive) (human CD7): 19.3 % positive

B3: CD8 Binder (SEQ ID NO. 69) (scFv)
scFv: NIVLTQSPASLAVSLGQRATISCRASESVDGFGNSFMNWYQQKPGQSPKLLIYLASNLESGVPARFSGSGSRTDFTLTIDPVEADDAATYYCQQNNEDPYTFGGGTKLEIKRGGGGSGGGGSGGGGSGGGGSEVQLQQSGPELVKPGASVKISCKASRYTFTDYNLHWVKLSHEKSLEWIGFIYPYNGGTGYNQKFKNKAKLTVDYSSSTAYMELRSLTSVDAAVYYCARDHRYNEGVSFDYWGQGTTLTVSS
Human PBMC Transduction (% positive) (human CD8): 4.09 % positive | NHP PBMC Transduction (% positive) (non-human primate CD8): 1.8 % positive

B4: CD8 binder of SEQ ID NO: 70 (printed in Table 1 as 'CD7 Binder (SEQ ID NO. 70)') (scFv)
scFv: EVQLQQSGPELVKPGASVKISCKASRYTFTDYNLHWVKLSHEKSLEWIGFIYPYNGGTGYNQKFKNKAKLTVDYSSSTAYMELRSLTSVDAAVYYCARDHRYNEGVSFDYWGQGTTLTVSSGGGGSGGGGSGGGGSGGGGSNIVLTQSPASLAVSLGQRATISCRASESVDGFGNSFMNWYQQKPGQSPKLLIYLASNLESGVPARFSGSGSRTDFTLTIDPVEADDAATYYCQQNNEDPYTFGGGTKLEIKR
Human PBMC Transduction (% positive) (human CD8): 3.17 % positive | NHP PBMC Transduction (% positive) (non-human primate CD8): 0.76 % positive
